Experimental data reported in patent publication US10766960 (dated 2020).

T1: FcgRIIb (human, UniProt P31994)
T1 chain: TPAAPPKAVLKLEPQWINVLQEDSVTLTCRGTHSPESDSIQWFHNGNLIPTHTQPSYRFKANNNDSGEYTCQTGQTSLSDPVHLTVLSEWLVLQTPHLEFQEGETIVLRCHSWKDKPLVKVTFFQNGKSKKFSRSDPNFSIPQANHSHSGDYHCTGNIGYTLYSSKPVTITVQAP

T2: FcgRIIa H (human, UniProt P12318)
T2 chain: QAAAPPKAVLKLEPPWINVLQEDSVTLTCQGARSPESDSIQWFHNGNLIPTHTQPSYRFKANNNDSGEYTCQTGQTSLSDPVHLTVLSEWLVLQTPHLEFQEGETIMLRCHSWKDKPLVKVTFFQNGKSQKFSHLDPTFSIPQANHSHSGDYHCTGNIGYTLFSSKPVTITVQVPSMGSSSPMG

T3: FcgRIa (human, UniProt P12314)
T3 chain: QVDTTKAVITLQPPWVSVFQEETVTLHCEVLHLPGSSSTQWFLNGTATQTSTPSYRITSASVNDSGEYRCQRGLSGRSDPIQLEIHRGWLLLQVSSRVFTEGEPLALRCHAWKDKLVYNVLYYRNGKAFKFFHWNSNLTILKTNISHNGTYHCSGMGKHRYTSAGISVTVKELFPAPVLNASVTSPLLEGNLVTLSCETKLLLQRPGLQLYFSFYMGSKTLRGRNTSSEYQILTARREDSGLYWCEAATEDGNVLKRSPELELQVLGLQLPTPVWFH

T4: FcgRIIa R (human, UniProt P12318)
T4 chain: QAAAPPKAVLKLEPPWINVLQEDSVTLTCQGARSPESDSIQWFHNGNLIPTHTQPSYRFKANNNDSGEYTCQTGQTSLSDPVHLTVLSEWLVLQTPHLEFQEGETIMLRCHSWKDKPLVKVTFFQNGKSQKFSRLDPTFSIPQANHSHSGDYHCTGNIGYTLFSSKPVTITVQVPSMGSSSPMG


Key:
Assay in all cases: SPR
[1] = biological target: T1, FcgRIIb
[2] = biological target: T2, FcgRIIa H
[3] = biological target: T3, FcgRIa
[4] = biological target: FcgRIIIa V (human, UniProt P08637)
Chain of FcgRIIIa V (P08637 17-208 F176V): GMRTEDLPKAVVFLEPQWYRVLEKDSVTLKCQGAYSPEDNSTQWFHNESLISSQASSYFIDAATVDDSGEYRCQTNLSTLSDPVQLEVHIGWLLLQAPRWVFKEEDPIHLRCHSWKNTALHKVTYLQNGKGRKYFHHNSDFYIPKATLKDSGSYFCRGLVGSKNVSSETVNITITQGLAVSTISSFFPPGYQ

[5] = biological target: FcgRIIIa F (human, UniProt P08637)
Chain of FcgRIIIa F (P08637 17-208): as the sequence (P08637 17-208 F176V) above, with V160F counted along it

[6] = biological target: T4, FcgRIIa R

Binder | Kd [1] [nM] | Kd [2] [nM] | Kd [3] [nM] | Kd [4] [nM] | Kd [5] [nM] | Kd [6] [nM]
H240-Kn222/H240-Hl068/L73-k0 (antibody) chain 1: QDQLVQSGAEVKKPGASVKVSCKASGFNIKDTYIQWVRQAPGQGLEWMGRIDPLRKQTKYREKFEGRVTITADTSTNTAYMELSSLRSEDTAVYYCVRSGREFDYWGQGTLVTVSSASTKGPSVFPLAPSSKSTSGGTAALGCLVKDYFPEPVTVSWNSGALTSGVHTFPAVLQSSGLYSLSSVVTVPSSSLGTQTYICNVNHKPSNTKVDKKVEPKSCDKTHTCPPCPAPEAYWGPMVFLFPPKPKDTLMISRTPEVTCVVVDVSDEDPEVKFNWYVDGVEVHNAKTKPREEQYNATYRVVSVLTVLHQDWLNGKEYKCKVSNKDLPAPIEKTISKAKGQPREPQVCTLPPSRDELTKNQVSLWCLVKGFYPSDIAVEWESNGQPENNYKTTPPVLDSDGSFFLYSKLTVDKSRWQQGNVFSCSVMHEALHNHYTQKSLSLSP chain 2: QDQLVQSGAEVKKPGASVKVSCKASGFNIKDTYIQWVRQAPGQGLEWMGRIDPLRKQTKYREKFEGRVTITADTSTNTAYMELSSLRSEDTAVYYCVRSGREFDYWGQGTLVTVSSASTKGPSVFPLAPSSKSTSGGTAALGCLVKDYFPEPVTVSWNSGALTSGVHTFPAVLQSSGLYSLSSVVTVPSSSLGTQTYICNVNHKPSNTKVDKKVEPKSCDKTHTCPPCPAPELLGGPSVFLFPPKPKDTLMISRTPEVTCVVVDVSHEEPEVKFNWYVDGVEVHNAKTKPREEQYNSTYRVVSVLTVLHQDWLNGKEYKCKVSNDALPKPIEETISKAKGQPREPQVYTLPPSRCELTKNQVSLSCAVKGFYPSDIAVEWESNGQPENNYKTTPPVLDSDGSFFLVSKLTVDKSRWQQGNVFSCSVMHEALHNHYTQKSLSLSP chain 3: DIQMTQSPSSLSASVGDRVTITCRASQDIHKYIAWYQQKPGQAPRLLIQYTSTLQPGVPSRFSGSGSGTDYTFTISSLQPEDIATYYCLQYEQLRTFGGGTKVEIKRTVAAPSVFIFPPSDEQLKSGTASVVCLLNNFYPREAKVQWKVDNALQSGNSQESVTEQDSKDSTYSLSSTLTLSKADYEKHKVYACEVTHQGLSSPVTKSFNRGEC | 190 | 49 | 0.14 | 0.54 | 3.3 | 28
H240-Kn205/H240-Hl212/L73-k0 (antibody) chain 1: QDQLVQSGAEVKKPGASVKVSCKASGFNIKDTYIQWVRQAPGQGLEWMGRIDPLRKQTKYREKFEGRVTITADTSTNTAYMELSSLRSEDTAVYYCVRSGREFDYWGQGTLVTVSSASTKGPSVFPLAPSSKSTSGGTAALGCLVKDYFPEPVTVSWNSGALTSGVHTFPAVLQSSGLYSLSSVVTVPSSSLGTQTYICNVNHKPSNTKVDKKVEPKSCDKTHTCPPCPAPEYLGGPSVFLFPPKPKDTLMISRTPEVTCVVVDVSHEDPEVKFNWYVDGVEVHNAKTKPREEQWNCTYRVVSVLTVLHQDWLNGKEYKCKVSNKALPAPIEKTISKAKGQPREPQVCTLPPSRDELTKNQVSLWCLVKGFYPSDIAVEWESNGQPENNYKTTPPVLDSDGSFFLYSKLTVDKSRWQQGNVFSCSVMHEALHNHYTQKSLSLSP chain 2: QDQLVQSGAEVKKPGASVKVSCKASGFNIKDTYIQWVRQAPGQGLEWMGRIDPLRKQTKYREKFEGRVTITADTSTNTAYMELSSLRSEDTAVYYCVRSGREFDYWGQGTLVTVSSASTKGPSVFPLAPSSKSTSGGTAALGCLVKDYFPEPVTVSWNSGALTSGVHTFPAVLQSSGLYSLSSVVTVPSSSLGTQTYICNVNHKPSNTKVDKKVEPKSCDKTHTCPPCPAPELLGGPDVFLFPPKPKDTLMISRTPEVTCVVVDVSHEDPEVKFNWYVDGVEVHNAKTKPREEQYNSTYRVVSVLTVLHQDWLNGKEYKCKVSNKALPAPIEVTISKAKGQPREPQVYTLPPSRCELTKNQVSLSCAVKGFYPSDIAVEWESNGQPENNYKTTPPVLDSDGSFFLVSKLTVDKSRWQQGNVFSCSVMHEALHNHYTQKSLSLSP chain 3: DIQMTQSPSSLSASVGDRVTITCRASQDIHKYIAWYQQKPGQAPRLLIQYTSTLQPGVPSRFSGSGSGTDYTFTISSLQPEDIATYYCLQYEQLRTFGGGTKVEIKRTVAAPSVFIFPPSDEQLKSGTASVVCLLNNFYPREAKVQWKVDNALQSGNSQESVTEQDSKDSTYSLSSTLTLSKADYEKHKVYACEVTHQGLSSPVTKSFNRGEC | 1600 | 370 | 0.054 | 4.2 | 12 | 610
H240-Kn213/H240-Hl076/L73-k0 (antibody) chain 1: QDQLVQSGAEVKKPGASVKVSCKASGFNIKDTYIQWVRQAPGQGLEWMGRIDPLRKQTKYREKFEGRVTITADTSTNTAYMELSSLRSEDTAVYYCVRSGREFDYWGQGTLVTVSSASTKGPSVFPLAPSSKSTSGGTAALGCLVKDYFPEPVTVSWNSGALTSGVHTFPAVLQSSGLYSLSSVVTVPSSSLGTQTYICNVNHKPSNTKVDKKVEPKSCDKTHTCPPCPAPEAQWGPMVFLFPPKPKDTLMISRTPEVTCVVVDVSDEEPEVKFNWYVDGVEVHNAKTKPREEQYNATYRVVSVLTVLHQDWLNGKEYKCKVSNKALPAPIEKTISKAKGQPREPQVCTLPPSRDELTKNQVSLWCLVKGFYPSDIAVEWESNGQPENNYKTTPPVLDSDGSFFLYSKLTVDKSRWQQGNVFSCSVMHEALHNHYTQKSLSLSP chain 2: QDQLVQSGAEVKKPGASVKVSCKASGFNIKDTYIQWVRQAPGQGLEWMGRIDPLRKQTKYREKFEGRVTITADTSTNTAYMELSSLRSEDTAVYYCVRSGREFDYWGQGTLVTVSSASTKGPSVFPLAPSSKSTSGGTAALGCLVKDYFPEPVTVSWNSGALTSGVHTFPAVLQSSGLYSLSSVVTVPSSSLGTQTYICNVNHKPSNTKVDKKVEPKSCDKTHTCPPCPAPELLGGPSVFLFPPKPKDTLMISRTPEVTCVVVDVSHEEPEVKFNWYVDGVEVHNAKTKPREEQYNSTYRVVSVLTVLHQDWLNGKEYKCKVSNDALPMPIEETISKAKGQPREPQVYTLPPSRCELTKNQVSLSCAVKGFYPSDIAVEWESNGQPENNYKTTPPVLDSDGSFFLVSKLTVDKSRWQQGNVFSCSVMHEALHNHYTQKSLSLSP chain 3: DIQMTQSPSSLSASVGDRVTITCRASQDIHKYIAWYQQKPGQAPRLLIQYTSTLQPGVPSRFSGSGSGTDYTFTISSLQPEDIATYYCLQYEQLRTFGGGTKVEIKRTVAAPSVFIFPPSDEQLKSGTASVVCLLNNFYPREAKVQWKVDNALQSGNSQESVTEQDSKDSTYSLSSTLTLSKADYEKHKVYACEVTHQGLSSPVTKSFNRGEC | 6100 | 210 | 0.082 | 0.73 | 2.6 | 820
H240-Kn198/H240-Hl076/L73-k0 (antibody) chain 1: QDQLVQSGAEVKKPGASVKVSCKASGFNIKDTYIQWVRQAPGQGLEWMGRIDPLRKQTKYREKFEGRVTITADTSTNTAYMELSSLRSEDTAVYYCVRSGREFDYWGQGTLVTVSSASTKGPSVFPLAPSSKSTSGGTAALGCLVKDYFPEPVTVSWNSGALTSGVHTFPAVLQSSGLYSLSSVVTVPSSSLGTQTYICNVNHKPSNTKVDKKVEPKSCDKTHTCPPCPAPELQWGPMVFLFPPKPKDTLMISRTPEVTCVVVDVSDEEPEVKFNWYVDGVEVHNAKTKPREEQYNATYRVVSVLTVLHQDWLNGKEYKCKVSNKALPAPIEKTISKAKGQPREPQVCTLPPSRDELTKNQVSLWCLVKGFYPSDIAVEWESNGQPENNYKTTPPVLDSDGSFFLYSKLTVDKSRWQQGNVFSCSVMHEALHNHYTQKSLSLSP chain 2: QDQLVQSGAEVKKPGASVKVSCKASGFNIKDTYIQWVRQAPGQGLEWMGRIDPLRKQTKYREKFEGRVTITADTSTNTAYMELSSLRSEDTAVYYCVRSGREFDYWGQGTLVTVSSASTKGPSVFPLAPSSKSTSGGTAALGCLVKDYFPEPVTVSWNSGALTSGVHTFPAVLQSSGLYSLSSVVTVPSSSLGTQTYICNVNHKPSNTKVDKKVEPKSCDKTHTCPPCPAPELLGGPSVFLFPPKPKDTLMISRTPEVTCVVVDVSHEEPEVKFNWYVDGVEVHNAKTKPREEQYNSTYRVVSVLTVLHQDWLNGKEYKCKVSNDALPMPIEETISKAKGQPREPQVYTLPPSRCELTKNQVSLSCAVKGFYPSDIAVEWESNGQPENNYKTTPPVLDSDGSFFLVSKLTVDKSRWQQGNVFSCSVMHEALHNHYTQKSLSLSP chain 3: DIQMTQSPSSLSASVGDRVTITCRASQDIHKYIAWYQQKPGQAPRLLIQYTSTLQPGVPSRFSGSGSGTDYTFTISSLQPEDIATYYCLQYEQLRTFGGGTKVEIKRTVAAPSVFIFPPSDEQLKSGTASVVCLLNNFYPREAKVQWKVDNALQSGNSQESVTEQDSKDSTYSLSSTLTLSKADYEKHKVYACEVTHQGLSSPVTKSFNRGEC | 6300 | 140 | 0.083 | 0.54 | 1.5 | 630
